The target of assay [1] is CRL4^DCAF1 (FL) (CUL4A-RBX1-DDB1-DCAF1), unneddylated (human) (UniProt Q13619). The experiment in a line: SEC-MALS. On the technique in general: SEC sorts molecules by how far they enter the pores of the column.
For assay [2] the target is unchanged. The experiment in a line: cryo-EM structure.
The target of assay [3] is CRL4^DCAF1 (FL) (R1247A) mutant (human) (UniProt Q13619). The experiment in a line: SEC-MALS.
For assay [4], the target named is CRL4^DCAF1 (FL)-VPR complex (human | HIV-1) (UniProt Q13619). The experiment in a line: SEC-MALS.
Assay [5] has as its target CRL4^DCAF1 (FL)-VPR-UNG2 complex (human | HIV-1 | not stated) (UniProt Q13619). The experiment in a line: SEC-MALS.
Assay [6] has as its target CRL4^DCAF1(FL)-MERLIN complex (UniProt Q13619). The experiment in a line: SEC-MALS.
For assay [7], the target named is DDB1-DCAF1 (FL) sub-complex (human) (UniProt Q16531). The experiment in a line: SEC-MALS.

CRL4^DCAF1 (FL) (CUL4A-RBX1-DDB1-DCAF1), unneddylated, sequence (Q13619 whole entry): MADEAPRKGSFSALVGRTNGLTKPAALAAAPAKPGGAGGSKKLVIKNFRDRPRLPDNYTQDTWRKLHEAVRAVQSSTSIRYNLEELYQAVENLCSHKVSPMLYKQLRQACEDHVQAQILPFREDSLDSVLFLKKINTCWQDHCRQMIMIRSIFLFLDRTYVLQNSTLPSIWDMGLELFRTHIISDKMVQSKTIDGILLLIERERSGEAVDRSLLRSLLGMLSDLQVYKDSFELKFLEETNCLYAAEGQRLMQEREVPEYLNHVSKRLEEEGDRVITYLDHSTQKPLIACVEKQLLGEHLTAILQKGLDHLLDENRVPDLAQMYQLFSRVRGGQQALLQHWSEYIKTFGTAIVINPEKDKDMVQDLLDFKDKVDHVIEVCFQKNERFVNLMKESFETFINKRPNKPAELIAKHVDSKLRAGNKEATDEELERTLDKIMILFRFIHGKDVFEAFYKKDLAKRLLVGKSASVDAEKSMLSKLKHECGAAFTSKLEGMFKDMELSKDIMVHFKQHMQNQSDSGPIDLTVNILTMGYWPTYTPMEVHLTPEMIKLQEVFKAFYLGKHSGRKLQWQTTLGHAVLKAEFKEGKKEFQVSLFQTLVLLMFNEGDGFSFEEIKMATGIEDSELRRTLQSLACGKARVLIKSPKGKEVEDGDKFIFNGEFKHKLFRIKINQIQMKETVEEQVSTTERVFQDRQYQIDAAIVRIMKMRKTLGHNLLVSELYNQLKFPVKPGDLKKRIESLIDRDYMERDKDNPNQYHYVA
CRL4^DCAF1 (FL) (CUL4A-RBX1-DDB1-DCAF1), unneddylated, sequence (P62877 whole entry): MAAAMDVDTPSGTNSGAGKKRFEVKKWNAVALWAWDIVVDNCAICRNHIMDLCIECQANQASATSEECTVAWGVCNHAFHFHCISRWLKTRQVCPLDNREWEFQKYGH
CRL4^DCAF1 (FL) (CUL4A-RBX1-DDB1-DCAF1), unneddylated, sequence (Q16531 whole entry): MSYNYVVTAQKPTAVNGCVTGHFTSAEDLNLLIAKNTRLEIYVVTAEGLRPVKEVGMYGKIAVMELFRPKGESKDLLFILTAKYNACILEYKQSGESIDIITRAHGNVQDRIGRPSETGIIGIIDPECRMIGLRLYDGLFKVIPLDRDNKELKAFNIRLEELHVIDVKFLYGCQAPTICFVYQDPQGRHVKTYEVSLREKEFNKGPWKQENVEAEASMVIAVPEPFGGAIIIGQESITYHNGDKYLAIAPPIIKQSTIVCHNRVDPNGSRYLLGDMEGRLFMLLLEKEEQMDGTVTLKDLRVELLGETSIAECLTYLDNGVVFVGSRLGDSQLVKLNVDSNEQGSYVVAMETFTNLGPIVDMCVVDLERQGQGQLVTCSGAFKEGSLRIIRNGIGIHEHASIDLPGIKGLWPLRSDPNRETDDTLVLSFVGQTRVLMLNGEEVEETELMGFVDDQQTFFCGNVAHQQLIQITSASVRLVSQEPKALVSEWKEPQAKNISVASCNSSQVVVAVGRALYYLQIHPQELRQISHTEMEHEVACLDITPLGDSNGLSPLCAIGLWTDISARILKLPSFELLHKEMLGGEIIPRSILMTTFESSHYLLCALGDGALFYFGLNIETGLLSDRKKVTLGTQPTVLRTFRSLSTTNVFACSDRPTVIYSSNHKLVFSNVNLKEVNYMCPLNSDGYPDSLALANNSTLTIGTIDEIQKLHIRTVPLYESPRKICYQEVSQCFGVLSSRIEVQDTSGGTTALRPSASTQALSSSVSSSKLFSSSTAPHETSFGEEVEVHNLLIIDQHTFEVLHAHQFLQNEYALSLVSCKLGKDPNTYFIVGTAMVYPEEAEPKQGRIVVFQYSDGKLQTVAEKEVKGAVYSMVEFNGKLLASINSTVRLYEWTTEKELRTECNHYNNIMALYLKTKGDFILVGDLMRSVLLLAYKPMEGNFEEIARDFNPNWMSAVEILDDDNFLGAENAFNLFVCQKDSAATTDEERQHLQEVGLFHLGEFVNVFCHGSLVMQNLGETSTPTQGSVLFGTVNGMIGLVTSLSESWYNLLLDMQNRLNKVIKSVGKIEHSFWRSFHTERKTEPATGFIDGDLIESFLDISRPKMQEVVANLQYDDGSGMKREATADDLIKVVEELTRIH
CRL4^DCAF1 (FL) (CUL4A-RBX1-DDB1-DCAF1), unneddylated, sequence (Q9Y4B6 whole entry): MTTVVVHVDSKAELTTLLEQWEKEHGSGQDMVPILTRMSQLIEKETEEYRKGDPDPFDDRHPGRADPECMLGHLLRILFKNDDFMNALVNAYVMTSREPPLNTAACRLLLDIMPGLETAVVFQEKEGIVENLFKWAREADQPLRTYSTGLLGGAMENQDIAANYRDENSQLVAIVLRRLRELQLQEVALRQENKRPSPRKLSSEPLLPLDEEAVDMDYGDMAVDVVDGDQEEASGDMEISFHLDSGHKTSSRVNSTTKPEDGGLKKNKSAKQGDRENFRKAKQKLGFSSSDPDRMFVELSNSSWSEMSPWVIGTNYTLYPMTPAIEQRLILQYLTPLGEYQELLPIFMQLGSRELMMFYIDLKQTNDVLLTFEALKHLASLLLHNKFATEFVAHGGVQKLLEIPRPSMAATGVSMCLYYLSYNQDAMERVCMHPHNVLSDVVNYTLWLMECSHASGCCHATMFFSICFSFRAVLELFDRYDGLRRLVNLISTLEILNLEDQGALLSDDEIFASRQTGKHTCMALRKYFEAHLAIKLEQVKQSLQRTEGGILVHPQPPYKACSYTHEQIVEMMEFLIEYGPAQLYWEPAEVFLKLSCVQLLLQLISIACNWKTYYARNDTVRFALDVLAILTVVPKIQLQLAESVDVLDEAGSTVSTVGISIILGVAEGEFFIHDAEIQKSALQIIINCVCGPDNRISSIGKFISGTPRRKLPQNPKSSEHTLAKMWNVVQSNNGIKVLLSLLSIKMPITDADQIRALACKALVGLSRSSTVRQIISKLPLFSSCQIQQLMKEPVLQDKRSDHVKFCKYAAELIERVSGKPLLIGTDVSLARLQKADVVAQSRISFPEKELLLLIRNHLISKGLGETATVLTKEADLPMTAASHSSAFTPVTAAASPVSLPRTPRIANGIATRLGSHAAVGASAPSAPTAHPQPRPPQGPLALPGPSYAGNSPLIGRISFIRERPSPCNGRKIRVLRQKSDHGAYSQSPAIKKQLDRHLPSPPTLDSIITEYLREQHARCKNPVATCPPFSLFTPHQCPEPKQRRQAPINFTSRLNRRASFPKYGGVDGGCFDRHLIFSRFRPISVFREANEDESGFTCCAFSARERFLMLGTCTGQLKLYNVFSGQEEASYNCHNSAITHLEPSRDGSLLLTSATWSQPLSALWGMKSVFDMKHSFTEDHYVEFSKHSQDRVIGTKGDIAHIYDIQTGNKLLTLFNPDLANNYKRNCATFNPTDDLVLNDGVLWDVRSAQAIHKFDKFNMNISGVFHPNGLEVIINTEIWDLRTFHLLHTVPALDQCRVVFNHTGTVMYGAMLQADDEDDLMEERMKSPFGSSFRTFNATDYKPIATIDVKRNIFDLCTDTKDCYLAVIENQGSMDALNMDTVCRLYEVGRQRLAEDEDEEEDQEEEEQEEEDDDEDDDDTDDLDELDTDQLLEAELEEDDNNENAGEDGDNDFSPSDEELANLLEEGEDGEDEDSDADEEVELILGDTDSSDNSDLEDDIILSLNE

What is called stoichiometry N is the number of molecules, sites or subunits per partner or assembly. For the substance “CRL4^DCAF1 (FL) (CUL4A-RBX1-DDB1-DCAF1), unneddylated (from UniProt Q13619;P62877;Q16531;Q9Y4B6) (complex)”, the stoichiometry N in assay [1] and in assay [2] was 4 throughout. “CRL4^DCAF1 (FL) (R1247A) mutant (from UniProt Q13619;P62877;Q16531;Q9Y4B6) (complex)” came in with a stoichiometry N in assay [3] of 2. In turn, “CRL4^DCAF1 (FL)-VPR complex (from UniProt Q13619;P62877;Q16531;Q9Y4B6;P12520)” returned a stoichiometry N in assay [4] of 4. In turn, “CRL4^DCAF1 (FL)-VPR-UNG2 complex (from UniProt Q13619;P62877;Q16531;Q9Y4B6;P12520;P13051-1)” showed a stoichiometry N in assay [5] of 2.

The substance “CRL4^DCAF1(FL)-MERLIN complex (from UniProt Q13619;P62877;Q16531;Q9Y4B6;P35240)” yielded a stoichiometry N in assay [6] of 4. On to “DDB1-DCAF1 (FL) sub-complex (from UniProt Q16531;Q9Y4B6)”, for which the stoichiometry N in assay [7] was 2.

(Values after paper PMC8591539.)
